Measured values as given in article PMC3098868.

Experiments:
[1] = biological target: human insulin receptor, isoform B (holoreceptor) (human) (UniProt P06213); assay: radioligand binding; scintillation proximity assay (SPA): competition of [125I]TyrA14-labelled insulin binding to solubilized holoreceptor, with IR-specific antibody 83-7; analogues taken directly from yeast supernatant after conversion; four-parameter logistic model; affinity relative to human insulin within the same plate [IC50(insulin)/IC50(analogue) x 100%]; near physiological pH
[2] = biological target: human insulin receptor, isoform A (holoreceptor) (human) (UniProt P06213); assay: as above
[3] = biological target: human insulin receptor, isoform B (holoreceptor) (human) (UniProt P06213); assay: radioligand binding; scintillation proximity assay (SPA): competition of [125I]TyrA14-labelled insulin binding to solubilized holoreceptor, with IR-specific antibody 83-7; purified ligand (human insulin standard, tracer, purified unglycosylated [A8H, B25N]); near physiological pH

Substance | relative affinity (IC50 insulin/IC50 analogue x 100%) (% of human insulin) [1] | relative affinity (IC50 insulin/IC50 analogue x 100%) (% of human insulin) [2] | fold difference in relative binding potency, IR-B over IR-A [3]
[A8H] desB30 insulin analogue (ligand) | 308 | 308 | –
[A8H, B25A, B27E] desB30 insulin analogue (ligand) | 24 | 10 | –
[A8H, B25Y, B27E] desB30 insulin analogue (ligand) | 459 | 714 | –
[A8H, B25N, B27D] desB30 insulin analogue (ligand) | 38 | 10 | –
[A8H, B25H, B27E] desB30 insulin analogue (ligand) | 140 | 67 | –
[A8H, B25N] desB30 insulin analogue (ligand) | 44 | 22 | 2 fold

Results, then the substance that gave them:

relative affinity (IC50 insulin/IC50 analogue x 100%) (% of human insulin) [1] | relative affinity (IC50 insulin/IC50 analogue x 100%) (% of human insulin) [2] | fold difference in relative binding potency, IR-B over IR-A [3] | Substance
82 | 43 | – | [A8H, B25H, B27D] desB30 insulin analogue (ligand)
57 | 15 | – | [A8H, B25N, B27E] desB30 insulin analogue (ligand)
8 | 4 | – | [B25N] desB30 insulin analogue (ligand)
